This is an account of results in US20080311132A1.

The target of assay [1] is C5 (UniProt P01031). In words: SPR (Biacore), CVF on the chip, C5 in solution.
Assay [2] concerns the target Factor H (UniProt P08603). The assay is described as follows: SPR (Biacore), CVF on the chip, factor H in solution.
In assay [3] the target is Factor B (UniProt P00751). The assay is described as follows: SPR (Biacore), CVF on the chip, factor B in solution, in EDTA.
In assay [4] the target is Factor B (UniProt P00751). The assay is described as follows: SPR (Biacore), CVF on the chip, factor B in solution, with Mg.
Assay [5] deals with Factor B (UniProt P00751). In words: SPR (Biacore), CVF on the chip, factor B in solution, with factor D and Mg.
Assay [6] concerns the target Bb, the activated form of factor B (UniProt P00751). The assay is described as follows: SPR (Biacore) at 25° C., half-life of the C3 convertase formed on CVF on the chip.

Cobra Venom Factor, sequence (Q91132 23-649 limits assumed): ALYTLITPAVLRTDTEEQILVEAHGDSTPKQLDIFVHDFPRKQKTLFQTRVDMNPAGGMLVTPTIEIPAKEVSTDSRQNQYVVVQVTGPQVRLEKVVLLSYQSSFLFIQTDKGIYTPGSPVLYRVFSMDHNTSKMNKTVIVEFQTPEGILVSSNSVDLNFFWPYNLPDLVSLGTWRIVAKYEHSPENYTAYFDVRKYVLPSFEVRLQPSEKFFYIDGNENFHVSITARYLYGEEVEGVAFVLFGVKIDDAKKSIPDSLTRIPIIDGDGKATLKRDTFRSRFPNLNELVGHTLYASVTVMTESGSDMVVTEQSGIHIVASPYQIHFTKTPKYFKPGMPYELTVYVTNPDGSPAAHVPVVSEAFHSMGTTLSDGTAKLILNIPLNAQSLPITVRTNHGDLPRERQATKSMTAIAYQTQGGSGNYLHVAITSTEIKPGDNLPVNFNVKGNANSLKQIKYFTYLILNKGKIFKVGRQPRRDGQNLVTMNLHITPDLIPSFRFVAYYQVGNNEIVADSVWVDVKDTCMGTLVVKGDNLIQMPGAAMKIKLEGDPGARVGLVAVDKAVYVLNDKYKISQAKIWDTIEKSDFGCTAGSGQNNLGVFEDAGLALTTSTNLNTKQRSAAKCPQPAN
Cobra Venom Factor, sequence (Q91132 733-984 limits assumed): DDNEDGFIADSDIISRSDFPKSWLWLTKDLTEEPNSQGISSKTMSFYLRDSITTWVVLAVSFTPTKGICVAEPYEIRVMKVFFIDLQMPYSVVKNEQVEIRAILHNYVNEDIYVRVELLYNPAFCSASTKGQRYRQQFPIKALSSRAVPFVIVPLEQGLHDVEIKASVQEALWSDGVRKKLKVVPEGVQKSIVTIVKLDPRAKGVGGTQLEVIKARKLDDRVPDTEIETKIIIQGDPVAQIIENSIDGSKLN
Cobra Venom Factor, sequence (Q91132 1264-1642 limits assumed): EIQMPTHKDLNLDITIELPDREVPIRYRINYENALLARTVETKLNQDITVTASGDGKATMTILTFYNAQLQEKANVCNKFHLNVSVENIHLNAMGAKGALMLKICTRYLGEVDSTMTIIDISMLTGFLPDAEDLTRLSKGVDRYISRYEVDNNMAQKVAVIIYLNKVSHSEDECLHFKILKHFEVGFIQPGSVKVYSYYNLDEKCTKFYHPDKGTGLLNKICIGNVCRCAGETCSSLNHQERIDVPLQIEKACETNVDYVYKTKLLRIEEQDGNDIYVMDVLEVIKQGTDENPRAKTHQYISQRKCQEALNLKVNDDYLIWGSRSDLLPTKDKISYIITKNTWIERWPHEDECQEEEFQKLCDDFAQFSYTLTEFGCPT
Factor B, sequence (P00751 26-764 limits assumed): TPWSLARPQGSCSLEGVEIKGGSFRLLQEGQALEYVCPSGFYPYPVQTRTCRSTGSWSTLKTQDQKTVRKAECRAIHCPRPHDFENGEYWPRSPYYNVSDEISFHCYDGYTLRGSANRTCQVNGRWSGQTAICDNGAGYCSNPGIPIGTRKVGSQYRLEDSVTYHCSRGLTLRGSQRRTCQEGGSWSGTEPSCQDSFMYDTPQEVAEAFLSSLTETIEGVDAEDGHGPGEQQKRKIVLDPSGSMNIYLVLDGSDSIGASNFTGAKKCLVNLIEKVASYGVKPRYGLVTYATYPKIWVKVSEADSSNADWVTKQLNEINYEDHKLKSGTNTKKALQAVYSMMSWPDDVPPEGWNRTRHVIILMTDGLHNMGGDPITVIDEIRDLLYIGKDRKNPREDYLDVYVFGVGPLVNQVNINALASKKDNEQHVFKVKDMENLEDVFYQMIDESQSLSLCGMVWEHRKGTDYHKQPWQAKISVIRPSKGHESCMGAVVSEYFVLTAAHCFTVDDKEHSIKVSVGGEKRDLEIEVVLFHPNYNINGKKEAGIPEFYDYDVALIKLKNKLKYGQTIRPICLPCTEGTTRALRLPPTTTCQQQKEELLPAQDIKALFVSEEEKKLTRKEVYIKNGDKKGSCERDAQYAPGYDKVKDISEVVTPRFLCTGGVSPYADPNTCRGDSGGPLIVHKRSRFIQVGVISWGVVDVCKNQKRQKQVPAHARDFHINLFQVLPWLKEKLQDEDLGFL
Bb, the activated form of factor B, sequence (P00751 260-764 limits assumed): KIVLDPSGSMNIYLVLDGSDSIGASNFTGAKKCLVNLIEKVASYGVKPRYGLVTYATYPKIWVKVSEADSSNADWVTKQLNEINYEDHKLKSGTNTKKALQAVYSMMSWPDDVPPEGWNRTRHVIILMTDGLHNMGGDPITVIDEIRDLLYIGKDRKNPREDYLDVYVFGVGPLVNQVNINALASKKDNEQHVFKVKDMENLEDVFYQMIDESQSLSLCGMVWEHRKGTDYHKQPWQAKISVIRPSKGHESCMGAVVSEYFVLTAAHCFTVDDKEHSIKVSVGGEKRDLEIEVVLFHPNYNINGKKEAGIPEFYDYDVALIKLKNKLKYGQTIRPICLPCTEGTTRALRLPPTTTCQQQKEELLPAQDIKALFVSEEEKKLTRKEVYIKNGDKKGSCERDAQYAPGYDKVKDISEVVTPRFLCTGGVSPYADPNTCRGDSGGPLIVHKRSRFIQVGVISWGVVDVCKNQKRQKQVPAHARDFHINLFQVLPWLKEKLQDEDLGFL
Factor H, sequence (P08603 19-1231 limits assumed): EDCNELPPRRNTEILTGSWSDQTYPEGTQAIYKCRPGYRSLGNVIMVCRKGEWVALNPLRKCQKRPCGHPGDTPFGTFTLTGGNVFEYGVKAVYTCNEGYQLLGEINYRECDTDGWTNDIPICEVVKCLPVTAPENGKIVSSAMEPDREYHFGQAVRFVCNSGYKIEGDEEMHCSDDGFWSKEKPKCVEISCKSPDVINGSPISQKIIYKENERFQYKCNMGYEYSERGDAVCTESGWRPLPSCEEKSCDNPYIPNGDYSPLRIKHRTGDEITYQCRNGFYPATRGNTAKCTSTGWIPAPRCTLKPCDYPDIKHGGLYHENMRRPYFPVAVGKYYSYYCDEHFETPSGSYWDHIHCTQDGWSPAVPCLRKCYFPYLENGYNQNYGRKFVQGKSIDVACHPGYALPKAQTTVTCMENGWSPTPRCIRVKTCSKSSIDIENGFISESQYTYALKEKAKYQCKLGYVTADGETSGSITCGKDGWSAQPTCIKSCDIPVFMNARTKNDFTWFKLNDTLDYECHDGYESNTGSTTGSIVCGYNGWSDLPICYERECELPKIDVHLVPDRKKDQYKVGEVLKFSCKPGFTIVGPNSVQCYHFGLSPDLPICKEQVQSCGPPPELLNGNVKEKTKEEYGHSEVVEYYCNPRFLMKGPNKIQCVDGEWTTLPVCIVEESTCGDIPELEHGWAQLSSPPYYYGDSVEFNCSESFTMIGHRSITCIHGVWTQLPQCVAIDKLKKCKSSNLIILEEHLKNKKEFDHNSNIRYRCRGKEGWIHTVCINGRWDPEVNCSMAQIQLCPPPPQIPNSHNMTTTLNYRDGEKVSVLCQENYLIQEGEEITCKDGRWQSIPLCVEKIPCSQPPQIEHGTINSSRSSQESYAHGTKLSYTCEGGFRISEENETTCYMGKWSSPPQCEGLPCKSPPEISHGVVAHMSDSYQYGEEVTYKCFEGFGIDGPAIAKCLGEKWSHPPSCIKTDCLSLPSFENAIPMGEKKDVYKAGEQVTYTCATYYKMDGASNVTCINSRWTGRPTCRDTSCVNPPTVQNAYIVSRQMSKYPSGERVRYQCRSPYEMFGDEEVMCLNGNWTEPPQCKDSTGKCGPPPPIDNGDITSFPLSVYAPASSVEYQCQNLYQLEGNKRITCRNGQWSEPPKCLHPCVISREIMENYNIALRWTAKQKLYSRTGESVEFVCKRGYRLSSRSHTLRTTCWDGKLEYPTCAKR

“Cobra Venom Factor (from UniProt Q91132 23-649; Q91132 733-984; Q91132 1264-1642)”: the Amount of protein bound (RU) in assay [1] was 617 RU; in assay [2], -14 RU; in assay [3] it was 99 RU; in assay [4] it was 298 RU; in assay [5], 370 RU. This substance also had a T½ of C3 convertase in assay [6] of 18.3 h.
